Data: patent US20060246471A1 (published 2006)

B4: MLXBIR3SG (ML-IAP chimera: ML-IAP framework with XIAP-BIR3 residues 336-348 in place of 160-179, and S150G) (other)
chain: MGSSHHHHHHSSGLVPRGSHMLETEEEEEEGAGATLSRGPAFPGMGSEELRLASFYDWPLTAEVPPELLAAAGFFHTGHQDKVRCFFCYGGLQSWKRGDDPWTEHAKWFPGCQFLLRSKGQEYINNIHLTHSL
notes: also called ML-IAP-BIR/XIAP-BIR3 chimera protein; His6-tagged MLXBIR3SG

Columns and labels:
[1] = molecular target: ΔCARD human caspase 9 (lacking the first 138 residues) with Ala substitutions at residues 304 to 306 (human) (UniProt P55211); experiment: caspase-9 enzyme inhibition
Chain of ΔCARD human caspase 9 (lacking the first 138 residues) with Ala substitutions at residues 304 to 306 (human) (P55211 139-416, stated change not applied): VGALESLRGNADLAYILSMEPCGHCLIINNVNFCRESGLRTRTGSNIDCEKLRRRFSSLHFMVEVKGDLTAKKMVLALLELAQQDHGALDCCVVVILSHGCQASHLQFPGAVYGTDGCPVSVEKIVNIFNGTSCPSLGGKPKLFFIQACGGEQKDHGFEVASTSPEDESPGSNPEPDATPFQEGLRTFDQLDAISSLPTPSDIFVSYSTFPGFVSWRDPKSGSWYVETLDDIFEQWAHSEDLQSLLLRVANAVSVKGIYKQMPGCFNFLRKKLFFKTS

[2] = molecular target: B4; experiment: TR-FRET competition against biotinylated Smac peptide AVPIAQK-biotin on His6-tagged MLXBIR3SG
Protocol: Time-Resolved Fluorescence Resonance Energy Transfer (TR-FRET) competition experiments (Kolb et al., (1996) J. Biomol. Screening 1 (4): 203-210) were performed on the Wallac Victor2 Multilabeled Counter Reader™ (Perkin Elmer Life and Analytical Sciences, Inc.). […] Alternatively, this cocktail can be made using optimized concentrations of europium-labeled anti-His₆ antibody (Perkin Elmer) instead of the anti-His₆ antibody-allophycocyanin conjugate, and streptavidin-allophycocyanin conjugate (Perkin Elmer) instead of europium-labeled streptavidin. The reagent cocktail was incubated at room temperature for 30 minutes. […] After a 90 minute incubation at room temperature, the fluorescence was read with filters for the excitation of europium (340 nm) and for the emission wavelengths of europium (615 nm) and allophycocyanin (665 nm). Data are calculated as a ratio of the emission signal of allophycocyanin at 665 nm to the emission signal of europium at 615 nm (these ratios are multiplied by a factor of 10,000 for ease of data manipulation). The resulting values were plotted as a function of antagonist concentration and fit to a 4-parameter equation using Kaleidagraph™ software (Synergy Software, Reading, Pa.). Indications of antagonist potency were determined from the IC₅₀ values.

[3] = molecular target: B4; experiment: fluorescence polarization competition against Hid-FAM probe
Protocol: (§1) Samples were read after a 10-minute incubation. Fluorescence polarization values were plotted as a function of the antagonist concentration, and the IC₅₀ values were obtained by fitting the data to a 4-parameter equation using Kaleidagraph™ software (Synergy software, Reading, Pa.). Inhibition constants (Kᵢ) for the antagonists were determined from the IC₅₀ values (Keating et al., (2000) Putting the pieces together: contribution of fluorescence polarization assays to small-molecule lead optimization. Proceedings of SPIE: In-Vitro Diagnostic Instrumentation.).

[4] = molecular target: T1, XIAP-BIR3 (third BIR of XIAP, residues 252-348) (human, UniProt P98170 252-348); experiment: as above
T1 construct: range 252-348; No tags are stated; also called XIAP-BIR3 protein
T1 sequence (P98170 252-348 limits assumed): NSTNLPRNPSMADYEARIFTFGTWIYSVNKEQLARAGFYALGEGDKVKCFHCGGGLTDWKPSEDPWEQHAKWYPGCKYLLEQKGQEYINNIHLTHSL
Protocol: as §1

[5] = molecular target: T2, ML-IAP-BIR (amino acids 63-179 of accession number BIR7_HUMAN), bacterially expressed from pET15b (human, UniProt Q96CA5 63-179); experiment: as above
T2 construct: range 63-179; Purified protein used in the fluorescence polarization assays; also called MLBIR; wild-type ML-IAP-BIR; not shown: N-terminal His6-tag from the pET15b vector
T2 sequence (looked up): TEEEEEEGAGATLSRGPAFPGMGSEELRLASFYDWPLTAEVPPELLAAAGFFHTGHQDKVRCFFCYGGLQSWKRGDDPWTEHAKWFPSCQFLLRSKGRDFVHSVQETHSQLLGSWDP
Protocol: as §1

[6] = molecular target: T3, MLBIR-Q (C-terminally truncated version of ML-IAP-BIR with the same number of amino acids as MLXBIR3 and … (human, UniProt Q96CA5 63-172)); experiment: as above
T3 construct: range 63-172; also called C-terminal truncated wild type; not shown: N-terminal His6-tag from the pET15b vector
T3 sequence (looked up): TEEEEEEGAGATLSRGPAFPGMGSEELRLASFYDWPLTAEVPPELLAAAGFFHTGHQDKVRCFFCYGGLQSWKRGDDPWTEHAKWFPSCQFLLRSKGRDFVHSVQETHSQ
Protocol: as §1

[7] = molecular target: ΔCARD human caspase 9 (lacking the first 138 residues) with Ala substitutions at residues 304 to 306 (human) (UniProt P55211); experiment: caspase-9 enzyme inhibition (Ac-LEHD-AFC hydrolysis), Ki(app); too low to measure accurately
[8] = molecular target: T4, 5-carboxyflourescein-conjugated AVPFAK(5-FAM)K (Hid-FAM) (5-carboxyfluorescein (5-FAM) on Lys 6); experiment: fluorescence polarization, BIR protein titrated onto 5 nM Hid-FAM
T4 construct: also called HID-FAM probe; Hid-based 5-carboxyfluorescein-labeled peptide
Protocol: Polarization experiments were performed on an Analyst™ HT 96-384 (Molecular Devices Corp.). […] The reactions were read after an incubation time of 10 minutes at room temperature with standard cut-off filters for the fluorescein fluorophore (λₑₓ=485 nm; λₑₘ=530 nm) in 96-well black HE96 plates (Molecular Devices Corp.). Fluorescence polarization values were plotted as a function of the protein concentration, and the EC₅₀ values were obtained by fitting the data to a 4-parameter equation using Kaleidagraph™ software (Synergy software, Reading, Pa.). The apparent Kd values were determined from the EC₅₀ values.

B1: full-length ML-IAP plus a N-terminal His6-tag (protein, human, UniProt Q96CA5 1-298, looked up, not shown: small tags and cut ends)
chain: MGPKDSAKCLHRGPQPSHWAAGDGPTQERCGPRSLGSPVLGLDTCRAWDHVDGQILGQLRPLTEEEEEEGAGATLSRGPAFPGMGSEELRLASFYDWPLTAEVPPELLAAAGFFHTGHQDKVRCFFCYGGLQSWKRGDDPWTEHAKWFPSCQFLLRSKGRDFVHSVQETHSQLLGSWDPWEEPEDAAPVAPSVPASGYPELPTPRREVQSESAQEPGGVSPAEAQRAWWVLEPPGARDVEAQLRRLQEERTCKVCLDRAVSIVFVPCGHLVCAECAPGLQLCPICRAPVRSRVRTFLS
fold lower potency for inhibition of caspase-9 activity relative to XIAP [1]: 300 fold

B2: AVPW peptide (peptide)
peptide: AVPW
notes: also called AVPW (Hid)
IC50 [2]: 150 nM

B3: wild-type mature Smac protein (amino acids 56-239 of Smac/DIABLO, C-terminal His6 fusion) (other, human, UniProt Q9NR28 56-239, looked up)
chain: AVPIAQKSEPHSLSSEALMRRAVSLVTDSTSTFLSQTTYALIEAITEYTKAVYTLTSLYRQYTSLLGKMNSEEEDEVWQVIIGARAEMTSKHQEYLKLETTWMTAVGLSEMAAEAAYQTGADQASITARNHIQLVKLQVEEVHQLSRKAETKLAEAQIEELRQKTQEEGEERAESEQEAYLRED
notes: range 56-239; not shown: C-terminal His6 fusion from pet21b+
Ki [3]: 59 nM
Ki [4]: 320 nM
Ki [5]: 26 nM
Ki [6]: 54 nM

B4
Ki [7]: < 1 nM
Kd [8]: 30 nM
